Paper PMC12162846, “Tripartite motif-containing protein 26 promotes colorectal cancer growth by inactivating p53” (Cell Death and Differentiation, 2025)

Target: T1, His-p53 (UniProt P04637 1-393)
T1 construct: p53; also called Purified p53; source: purified
Assay: pull-down; GST-TRIM26 fragments on beads, incubated with His-p53 or His-MDM2 at RT for 40 min; bound protein detected by Western blot with His antibody
Conditions: both partners purified

T1 sequence (P04637 whole entry): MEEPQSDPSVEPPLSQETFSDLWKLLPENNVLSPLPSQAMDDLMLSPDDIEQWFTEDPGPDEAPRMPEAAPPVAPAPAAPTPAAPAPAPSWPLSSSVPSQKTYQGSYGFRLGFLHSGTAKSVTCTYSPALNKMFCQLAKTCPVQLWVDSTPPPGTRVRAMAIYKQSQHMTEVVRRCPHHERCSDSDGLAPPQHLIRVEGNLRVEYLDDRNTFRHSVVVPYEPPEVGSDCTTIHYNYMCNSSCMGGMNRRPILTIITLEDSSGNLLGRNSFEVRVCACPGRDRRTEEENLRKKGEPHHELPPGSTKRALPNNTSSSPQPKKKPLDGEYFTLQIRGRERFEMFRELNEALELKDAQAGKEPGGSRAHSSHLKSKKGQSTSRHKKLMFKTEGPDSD

B1: GST-TRIM26 C-terminal PRYSPRY domain (aa301-539) (domain or fragment, UniProt Q12899 301-539, looked up)
chain: QGKLLRDLEYKTVSVTLDPQSASGYLQLSEDWKCVTYTSLYKSAYLHPQQFDCEPGVLGSKGFTWGKVYWEVEVEREGWSEDEEEGDEEEEGEEEEEEEEAGYGDGYDDWETDEDEESLGDEEEEEEEEEEEVLESCMVGVARDSVKRKGDLSLRPEDGVWALRLSSSGIWANTSPEAELFPALRPRRVGIALDYEGGTVTFTNAESQELIYTFTATFTRRLVPFLWLKWPGTRLLLRP
notes: also called the C-terminal domain of TRIM26; source: purified GST-fusion protein on beads
binding result: binds
